The results in this text go back to patent publication US20220162334A1 (SHANGHAI HENLIUS BIOTECH, published 2022).

Substitutions are numbered along the chain they refer to.

First the molecules themselves.
T1: human CD73 on CD73-expressing human tumor cells (MDA-MB-231, NCI-H292) (human, UniProt P21589 27-549)
T1 construct: whole, on cells; The cell line of each result is named under assay or readout; also called cell surface CD73; surface CD73
T1 sequence (looked up): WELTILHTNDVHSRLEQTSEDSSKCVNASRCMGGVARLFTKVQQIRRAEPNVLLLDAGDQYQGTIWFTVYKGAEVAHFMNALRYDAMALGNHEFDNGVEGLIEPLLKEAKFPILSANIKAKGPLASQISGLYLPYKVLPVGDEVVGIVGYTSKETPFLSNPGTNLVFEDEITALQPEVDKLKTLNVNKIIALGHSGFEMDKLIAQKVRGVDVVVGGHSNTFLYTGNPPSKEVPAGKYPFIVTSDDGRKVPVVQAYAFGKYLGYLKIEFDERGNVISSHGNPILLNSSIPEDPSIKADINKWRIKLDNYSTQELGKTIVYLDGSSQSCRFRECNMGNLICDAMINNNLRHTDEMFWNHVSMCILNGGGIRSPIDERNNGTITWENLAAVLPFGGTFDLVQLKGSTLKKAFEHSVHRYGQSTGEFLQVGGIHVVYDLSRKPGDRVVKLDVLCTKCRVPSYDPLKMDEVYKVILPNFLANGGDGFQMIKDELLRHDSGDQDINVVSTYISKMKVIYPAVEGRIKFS

T2: mouse CD73 on mouse mammary carcinoma 4T1 cells (mouse, UniProt Q61503 29-551)
T2 construct: whole, on cells
T2 sequence (looked up): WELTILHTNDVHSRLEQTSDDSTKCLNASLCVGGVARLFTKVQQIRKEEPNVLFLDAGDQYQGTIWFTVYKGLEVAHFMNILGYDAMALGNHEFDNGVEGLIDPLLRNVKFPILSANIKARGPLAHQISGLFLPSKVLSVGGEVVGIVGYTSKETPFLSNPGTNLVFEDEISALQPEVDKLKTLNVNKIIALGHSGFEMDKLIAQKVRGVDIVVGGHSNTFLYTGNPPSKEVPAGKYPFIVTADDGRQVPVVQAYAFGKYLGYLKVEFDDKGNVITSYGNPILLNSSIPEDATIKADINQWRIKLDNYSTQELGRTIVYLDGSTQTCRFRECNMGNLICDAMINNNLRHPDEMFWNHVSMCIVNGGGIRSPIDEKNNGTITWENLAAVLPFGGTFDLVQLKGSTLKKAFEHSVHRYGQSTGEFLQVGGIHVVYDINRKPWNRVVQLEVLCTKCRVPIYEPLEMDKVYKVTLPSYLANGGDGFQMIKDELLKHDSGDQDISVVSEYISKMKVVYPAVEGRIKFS

B1: N4#6-3-P (antibody, human IgG2, lambda, V domains shown)
VH: QVQLVQSGAEVKKSGSSVKVSCKASGGTFSSYAISWVRQAPGQGLEWMGGIIPIFGTANYAQKFQGRVTITADESTSIAYMELSSLRSEDTAVYYCASDGAVAAYDAFLIWGQGTMVTVSS
VL: QAVLTQPSSVSGAPGQRVTISCTGTSSNIGLGYDIHWYQQLPGTAPKLLMYRFDRRPSGVPDRFSGSKSGTSASLTITGLQVEDEADYYCQSYDSGQRGWVFGGGTKLTVLG
notes: Full-length human IgG2 antibody; also called antibody variant N4#6-3-P; N4 top variant
B2: N4#6-4-P (antibody, human IgG2, lambda, V domains shown)
VH: B1 VH with G50M
VL: B1 VL with L31A, Y33F, D54S
notes: Full-length human IgG2 antibody; also called antibody variant N4#6-4-P; N4 top variant
B3: N1#9-PH (antibody, human IgG2, lambda, V domains shown)
VH: EVQLVESGGGLVQPGRSLRLSCAASGFTFDDYAMHWVRLAPGKGLEWVSGISWNSGSIGYADSVRGRFTISRDNAKNSLYLQMNSLRAEDTALYYCAKDMGWSLLKTNYYGMDVWGQGTTVTVSS
VL: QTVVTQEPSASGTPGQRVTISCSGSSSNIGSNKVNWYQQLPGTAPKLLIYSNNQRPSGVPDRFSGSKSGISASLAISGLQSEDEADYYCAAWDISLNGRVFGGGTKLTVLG
notes: Full-length human IgG2 antibody; also called antibody variant N1#9-PH; N1 top variant

The first assay deals with T1, human CD73 on CD73-expressing human …. Nature of the assay: flow cytometry on MDA-MB-231 cells (FIG. 16B). On the procedure: Whole cell binding ability of anti-CD73 antibodies were tested by incubating the MDA-MB-231 or NCI-H292 cells with the serial-diluted antibodies in FACS buffer (PBS with 2% FBS) at 4° C. for 30 minutes. Cells were washed with FACS buffer and the binding was detected with FITC-labeled goat anti-human IgG (H+L) antibodies (or PE-labeled goat anti-human IgG Fcγ) at 4° C. for another 30 minutes. The binding of antibodies to cell surface was measured by the mean fluorescent intensity (MFI) of staining. Flow cytometric analyses were performed using the Cytomics FC500 or CytoFLEX flow cytometry (Beckman Coulter Inc.). FIGS. 2B and 2C show selected anti-CD73 antibodies binding to CD73-expressing human tumor cells MDA-MB-231 (human breast adenocarcinoma) cells (FIG. 2B), and NCI-H292 (human mucoepidermoid pulmonary carcinoma) cells (FIG. 2C).
FIGS. 16A-16C show CD73 binding ability of N1 and N4 top variants. Anti-CD73 antibodies were tested the binding to recombinant human CD73 proteins by ELISA (FIG. 16A) and CD73-expressing human tumor cells, MDA-MB-231 (FIG. 16B) and NCI-H292 (FIG. 16C), by flow cytometry. Anti-CD73 ref-1 and anti-CD73 ref-2 antibodies were used as the positive controls, while HLX01 (anti-CD20) was used as the negative control. […] The binding of N1#9-PH to CD73-expressing NCI-H292 cells is slightly better than that of N4#6-3-P and N4#6-4-P.
For orientation: In flow cytometry, cells or beads pass a laser one at a time.
Consider B1, for which the binding result was “binds”.
On the same count and under the same terms, under B2 stands “binds”; under B3, “binds”.

The target of the next assay is T2, mouse CD73 on mouse mammary carcinoma …. In words: flow cytometry on 4T1 cells, FITC anti-human IgG (FIG. 24A). The protocol: Binding of anti-CD73 antibodies was assessed by incubating the 4T1 or LLC-MK2 cells (1E5 cells/test) with the serially diluted antibodies in FACS buffer (PBS with 2% FBS) at 4° C. for 30 minutes. The cells were washed with FACS buffer and the binding was detected with FITC-labeled goat anti-human IgG (H+L) antibodies at 4° C. for another 30 minutes. The binding of antibodies to cell surface was measured by the mean fluorescent intensity (MFI) of staining. Flow cytometric analyses were performed using the Cytomics FC500 or CytoFLEX flow cytometry (Beckman Coulter Inc.).
FIGS. 24A and 24B illustrate cross-binding of N1 and N4 top variants to mouse and monkey CD73-expressing cells. Anti-CD73 antibodies were tested for the binding to CD73-expressing mouse mammary carcinoma 4T1 cells (FIG. 24A) and monkey kidney epithelial LLC-MK2 cells (FIG. 24B) by flow cytometry. HLX01 was used as the negative control. […] N1 and N4 top variants cannot cross-bind to mouse CD73.
Regarding B1, the binding result is listed as “no binding”.
With B2, the binding result was “no binding”.
Still for that read-out and setting: the value for B3 was “no binding”.
